Experimental data as given in publication PMC10691131, “Self S-RNase reduces the expression of two pollen-specific COBRA genes to inhibit pollen tube growth in pear”.

Target: T1, PbC2H2.K16.2 (pear, UniProt UPI0005117FCC 5-185)
T1 sequence: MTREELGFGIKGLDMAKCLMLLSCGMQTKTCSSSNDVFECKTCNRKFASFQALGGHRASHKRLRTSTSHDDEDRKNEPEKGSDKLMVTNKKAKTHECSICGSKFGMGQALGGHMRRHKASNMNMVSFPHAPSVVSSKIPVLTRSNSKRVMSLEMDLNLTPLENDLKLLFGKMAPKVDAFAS
Assay: EMSA; 10x and 100x cold probe weakens signal; Buffer, salt, pH and temperature not stated; EMSA per Guo et al. 2021, MST per Singh et al. 2014 (Monolith NT.115)
Details: protein: recombinant; tags: His; label: 5' biotin (EMSA)

B1: PbCOB.A.2 promoter probe (PbC2H2.K16.2) (dsDNA)
DNA 1: TAAAAACATGATTGGTCCAATGCAAGTTAT
DNA 2: ATAACTTGCATTGGACCAATCATGTTTTTA
  binding result: binds

B2: PbCOB.A.1 promoter probe (dsDNA)
DNA 1: TTCGAGGTTTTTGGTCCAGAAAGAAGAAGA
DNA 2: TCTTCTTCTTTCTGGACCAAAAACCTCGAA
  binding result: binds
